Reference: US20250044282A1

Molecular target: HIV-1 integrase fused to HA tag at the C terminus (INHA) (HIV-1 LAI (BRU)) (UniProt P03367)

HIV-1 CA (capsid protein) (from UniProt P03348 133-363)
percentage of colocalization: 70%
